Assay results reported in PMC13066097.

Molecular target: anti-PcrV scFv conjugated with the mouse IgG1 hinge, CH2 and CH3 domains, scFv-m166-mFc (recombinant protein) (mouse)
Assay: non-reducing SDS-PAGE with immunoblot

With “anti-PcrV scFv conjugated with the mouse IgG1 hinge, CH2 and CH3 domains, scFv-m166-mFc (recombinant protein) (Fc fusion)” the stoichiometry N was 2.
